Columns and labels:
[1] = target: T1, human CD8 on human T cells (human, UniProt P01732 22-235); assay: cell-based or functional assay
[2] = target: T1, human CD8 on human T cells; assay: flow cytometry on human CD8+ T cells, titration
Protocol: (§1) The 24 humanized 02A01-derived anti-CD8 antibodies (excluding 02A01-VK3(D30E/N35Q)) were screened for their ability to bind human CD8 by evaluating binding to CD8+ T cells. The non-humanized parent (“02-Parent”) and the non-humanized parent comprising a heavy chain M39L liability mutation (“02-Parent-VH-M39L”) were used as controls. […] Cells were washed with 1×phosphate buffered saline (PBS) containing 1 mg/mL bovine serum albumin (PBS/BSA) and then stained with a 1:100 dilution of DyLight650-conjugated anti-human IgG H+L polyclonal antibody (ThermoFisher cat. no. Sa5-10129) in PBS/BSA. Following a 20-30 min incubation at 4° C., the cells were washed once with PBS/BSA, and then resuspended in PBS/BSA for analysis on a FACSCelesta using Diva software (BD Biosciences). The resulting data were analyzed using FlowJo. Data were quantified and reported as Max fluorescence intensity (MFI) of human IgG-Fc. […] Complete replacement of the HCDR1 (antibodies comprising VH5) eliminated binding to the CD8+ T cells.
(§2) Binding to human CD8+ T cells was tested at 7 serial 5-fold dilutions of each tested humanized 02A01 variant (from 50 nM to 3.2 pM). The resulting data were analyzed using FlowJo.

[3] = target: T1, human CD8 on human T cells; assay: flow cytometry on human CD8+ T cells, titration, apparent KD
Protocol: as §1, §2

human CD8α/β [4] = target: T2, human CD8α/β (human, UniProt P01732 22-182; P10966 22-170); assay: SPR, antibody captured on Protein A chip, hCD8α/β as analyte
T2 construct: Soluble heterodimer used in SPR and in the Carterra binning (there printed only as CD8α/β); also called hCD8α/β
Protocol: (§3) The binding affinities of six of the humanized anti-CD8 antibodies to human CD8 were also determined by surface plasmon resonance (SPR). Briefly, equilibrium dissociation constants for human CD8α/β were determined using a real-time SPR biosensor using a Protein A Sensor Chip (Cytiva) to capture purified anti-CD8 monoclonal antibodies at a concentration of 0.5 nM. SPR binding studies were performed in a buffer composed of Phosphate buffered saline, pH 7.2 containing 0.05% v/v Surfactant P20 (PBS-P20 buffer). Different concentrations of hCD8α/β prepared in PBS-P20 running buffer (ranging from 500 nM to 7.8 nM, 2-fold dilutions) were injected over the anti-CD8 monoclonal antibody captured surface. Association of hCD8α/β to the captured monoclonal antibody was monitored for 400 seconds and the dissociation of hCD8α/β in PBS-P20 running buffer was monitored for 600 sec. All of the binding kinetics experiments were performed at 25° C. Kinetic association (kₐ) and dissociation (kd) rate constants were determined by fitting the real-time sensorgrams to a 1:1 binding model using Scrubber 2.0c curve fitting software.

human CD8α/β [5] = target: T2, human CD8α/β; assay: SPR, antibody captured on Protein A chip, hCD8α/β as analyte, 1:1 fit
Protocol: as §3

T2 sequence (P01732 22-182, chain 1 of 2): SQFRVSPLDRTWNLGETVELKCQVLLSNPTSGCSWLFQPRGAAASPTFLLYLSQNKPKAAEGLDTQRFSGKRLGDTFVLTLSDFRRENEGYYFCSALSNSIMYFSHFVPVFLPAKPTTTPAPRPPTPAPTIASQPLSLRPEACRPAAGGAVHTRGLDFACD
T2 sequence (P10966 22-170, chain 2 of 2): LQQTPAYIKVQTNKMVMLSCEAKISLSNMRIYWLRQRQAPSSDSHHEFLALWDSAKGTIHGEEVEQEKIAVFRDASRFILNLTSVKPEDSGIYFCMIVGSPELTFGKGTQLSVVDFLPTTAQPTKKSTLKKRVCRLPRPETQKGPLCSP
T1 sequence (P01732 22-235): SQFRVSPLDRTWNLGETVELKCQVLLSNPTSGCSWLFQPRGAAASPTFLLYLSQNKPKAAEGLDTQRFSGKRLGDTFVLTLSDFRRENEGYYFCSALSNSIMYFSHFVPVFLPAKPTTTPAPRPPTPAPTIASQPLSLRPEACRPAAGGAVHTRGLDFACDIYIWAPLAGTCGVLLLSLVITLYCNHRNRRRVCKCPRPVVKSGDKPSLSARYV

EC50 of pSTAT4 signaling in human CD8+ T cells [1] [pM] | Fold Change to Parental Apparent KD [2] [fold] | Maximum CD8+ T cell Binding (MFI) [2] [MFI] | Kd [3] [nM] | Fold Change to Parental Calculated KD (human CD8α/β [4]) [fold] | Kd (human CD8α/β [5]) [nM] | Binder
– | 1.18 | 2880 | 0.067 | – | – | humanized 02A01-VH2-VK3 (antibody, human IgG1, V domains shown, human IgG1 format; also called 02-VH2-VK3) VH: EVQLVQSGAEVKKPGATLKISCKASGYTFTDFTMHWVQQAPGKGLEWIGLVNPNNGGNIYNQNFKGRATLTVDTSTSTAYMELSSLRSEDTSVYYCGRVPLYTSHGMDYWGQGTLVTVSS VL: EIVLTQSPATLSLSPGERATISCRASESVDSYDINSMHWYQQKPGQAPRLLIYRASHLQSGIPARFSGSGSRTDFTLTISSLEPEDFATYYCQQSNEDPLTFGQGTKLEIK
– | 0.89 | 2050 | 0.051 | – | – | humanized 02A01-VH1-VK4 (antibody, human IgG1, V domains shown, human IgG1 format; also called 02-VH1-VK4) VH: EVQLVQSGPEVVKPGATLKISCKASGYTFTDFTMHWVKQAPGKSLEWIGLVNPNNGGNIYNQNFKGRATLTVDTSTSTAYMELSSLRSEDTSVYYCGRVPLYTSHGMDYWGQGTLVTVSS VL: EIVLTQSPATLSVSPGERATISCRASESVDSYDINSMHWYQQKPGQAPRLLIYDASNRATGIPARFSGSGSRTDFTLTISSVEPEDFATYYCQQSNEDPLTFGQGTKLEIK
– | 0.86 | 2810 | 0.049 | – | – | humanized 02A01-VH4-VK1 (antibody, human IgG1, V domains shown, human IgG1 format; also called 02-VH4-VK1) VH: EVQLVQSGAEVKKPGATVKISCKASGYTFTDFTMHWVQQAPGKGLEWIGLVNPNNGGNIYAEKFQGRATLTVDTSTSTAYMELSSLRSEDTAVYYCGRVPLYTSHGMDYWGQGTLVTVSS VL: EIVLTQSPATLSVSPGERATISCRASESVDSYDINSMHWYQQKPGQPPRLLIYRASHLQSGIPARFSGSGSRTDFTLTISSVEPEDFATYYCQQSNEDPLTFGQGTKLEIK
– | 0.89 | 2040 | 0.051 | – | – | humanized 02A01-VH2-VK4 (antibody, human IgG1, V domains shown, human IgG1 format; also called 02-VH2-VK4) VH: EVQLVQSGAEVKKPGATLKISCKASGYTFTDFTMHWVQQAPGKGLEWIGLVNPNNGGNIYNQNFKGRATLTVDTSTSTAYMELSSLRSEDTSVYYCGRVPLYTSHGMDYWGQGTLVTVSS VL: EIVLTQSPATLSVSPGERATISCRASESVDSYDINSMHWYQQKPGQAPRLLIYDASNRATGIPARFSGSGSRTDFTLTISSVEPEDFATYYCQQSNEDPLTFGQGTKLEIK
– | 1.12 | 1690 | 0.064 | – | – | humanized 02A01-VH6-VK4 (antibody, human IgG1, V domains shown, human IgG1 format; also called 02-VH6-VK4) VH: EVQLVQSGAEVKKPGATVKISCKASGYTFTDFTMHWVQQAPGKGLEWIGLVNPNNGGNIYAEKFQGRVTLTVDTSTSTAYMELSSLRSEDTAVYYCGRVPLYTSHGMDYWGQGTLVTVSS VL: EIVLTQSPATLSVSPGERATISCRASESVDSYDINSMHWYQQKPGQAPRLLIYDASNRATGIPARFSGSGSRTDFTLTISSVEPEDFATYYCQQSNEDPLTFGQGTKLEIK
– | 1.56 | 2620 | 0.089 | 2.13 | 19.8 | humanized 02A01-VH4-VK3 (antibody, human IgG1, V domains shown, human IgG1 format; also called 02-VH4/VK3) VH: EVQLVQSGAEVKKPGATVKISCKASGYTFTDFTMHWVQQAPGKGLEWIGLVNPNNGGNIYAEKFQGRATLTVDTSTSTAYMELSSLRSEDTAVYYCGRVPLYTSHGMDYWGQGTLVTVSS VL: EIVLTQSPATLSLSPGERATISCRASESVDSYDINSMHWYQQKPGQAPRLLIYRASHLQSGIPARFSGSGSRTDFTLTISSLEPEDFATYYCQQSNEDPLTFGQGTKLEIK
– | 1.16 | 1560 | 0.066 | – | – | humanized 02A01-VH3-VK4 (antibody, human IgG1, V domains shown, human IgG1 format; also called 02-VH3-VK4) VH: EVQLVQSGAEVKKPGATLKISCKASGYTFTDFTMHWVQQAPGKGLEWIGLVNPNNGGNIYAEKFQGRATLTVDTSTSTAYMELSSLRSEDTSVYYCGRVPLYTSHGMDYWGQGTLVTVSS VL: EIVLTQSPATLSVSPGERATISCRASESVDSYDINSMHWYQQKPGQAPRLLIYDASNRATGIPARFSGSGSRTDFTLTISSVEPEDFATYYCQQSNEDPLTFGQGTKLEIK
– | 1.04 | 1640 | 0.059 | – | – | humanized 02A01-VH4-VK4 (antibody, human IgG1, V domains shown, human IgG1 format; also called 02-VH4-VK4) VH: EVQLVQSGAEVKKPGATVKISCKASGYTFTDFTMHWVQQAPGKGLEWIGLVNPNNGGNIYAEKFQGRATLTVDTSTSTAYMELSSLRSEDTAVYYCGRVPLYTSHGMDYWGQGTLVTVSS VL: EIVLTQSPATLSVSPGERATISCRASESVDSYDINSMHWYQQKPGQAPRLLIYDASNRATGIPARFSGSGSRTDFTLTISSVEPEDFATYYCQQSNEDPLTFGQGTKLEIK
– | 1.14 | 2680 | 0.065 | 2.1 | 19.5 | humanized 02A01-VH4-VK2 (antibody, human IgG1, V domains shown, human IgG1 format; also called 02-VH4/VK2) VH: EVQLVQSGAEVKKPGATVKISCKASGYTFTDFTMHWVQQAPGKGLEWIGLVNPNNGGNIYAEKFQGRATLTVDTSTSTAYMELSSLRSEDTAVYYCGRVPLYTSHGMDYWGQGTLVTVSS VL: EIVLTQSPATLSVSPGERATISCRASESVDSYDINSMHWYQQKPGQAPRLLIYRASHLQSGIPARFSGSGSRTDFTLTISSVEPEDFATYYCQQSNEDPLTFGQGTKLEIK

More lines, now with the values behind:

Binder | EC50 of pSTAT4 signaling in human CD8+ T cells [1] [pM] | Fold Change to Parental Apparent KD [2] [fold] | Maximum CD8+ T cell Binding (MFI) [2] [MFI] | Kd [3] [nM] | Fold Change to Parental Calculated KD (human CD8α/β [4]) [fold] | Kd (human CD8α/β [5]) [nM]
03A01-IgG-IL12 (HC) (other) VH: DVQFQESGPGLVKPSQSLSLTCTVTGYSITSDFAWNWIRQFPGNELEWMGYISYSGDTNYNPSLRSRISITRDTSKNQFFLQLDSVTTEDTATYYCTIRGYYTDSAFVFWGQGTLVTVSA VL: DIQMTQSSSYLSVSLGGRVTITCKASDHINNWLAWYQQKPGNAPRLLISGATSLETGVPSRFTGSGSGLDYTLSITSLQTEDVATYYCQQYWNSPFTFGSGTKLEIK | 15.7 | – | – | – | – | –
03A01-Fab-Fc-IL12 (LC) (other) VH: DVQFQESGPGLVKPSQSLSLTCTVTGYSITSDFAWNWIRQFPGNELEWMGYISYSGDTNYNPSLRSRISITRDTSKNQFFLQLDSVTTEDTATYYCTIRGYYTDSAFVFWGQGTLVTVSA VL: DIQMTQSSSYLSVSLGGRVTITCKASDHINNWLAWYQQKPGNAPRLLISGATSLETGVPSRFTGSGSGLDYTLSITSLQTEDVATYYCQQYWNSPFTFGSGTKLEIK | 13.4 | – | – | – | – | –
03A01-Fab-IL12 (LC) (other) VH: DVQFQESGPGLVKPSQSLSLTCTVTGYSITSDFAWNWIRQFPGNELEWMGYISYSGDTNYNPSLRSRISITRDTSKNQFFLQLDSVTTEDTATYYCTIRGYYTDSAFVFWGQGTLVTVSA VL: DIQMTQSSSYLSVSLGGRVTITCKASDHINNWLAWYQQKPGNAPRLLISGATSLETGVPSRFTGSGSGLDYTLSITSLQTEDVATYYCQQYWNSPFTFGSGTKLEIK | 11.1 | – | – | – | – | –
02A01-IgG-IL12 (HC) (other) VH: EVQLQQSGPELVKPGASLKISCKASGYTFTDFTMHWVKQSHGKSLEWIGLVNPNNGGNIYNQNFKGKATLTVDTSSSTAYMELRSLTSEDSSVYYCGRVPLYTSHGMDYWGQGTSVTVSS VL: DIVLTQSPAFLAVSLGQRATISCRASESVDSYDINSMHWYQQKPGQPPKLLIYRASHLQSGIPARFSGSGSRTDFTLTINFVEADDVATYYCQQSNEDPLTFGAGTKLELK | 3.03 | – | – | – | – | –
02A01-Fab-IL12 (LC) (other) VH: EVQLQQSGPELVKPGASLKISCKASGYTFTDFTMHWVKQSHGKSLEWIGLVNPNNGGNIYNQNFKGKATLTVDTSSSTAYMELRSLTSEDSSVYYCGRVPLYTSHGMDYWGQGTSVTVSS VL: DIVLTQSPAFLAVSLGQRATISCRASESVDSYDINSMHWYQQKPGQPPKLLIYRASHLQSGIPARFSGSGSRTDFTLTINFVEADDVATYYCQQSNEDPLTFGAGTKLELK | 1.74 | – | – | – | – | –
02A01-Fab-Fc-IL12 (LC) (other) VH: EVQLQQSGPELVKPGASLKISCKASGYTFTDFTMHWVKQSHGKSLEWIGLVNPNNGGNIYNQNFKGKATLTVDTSSSTAYMELRSLTSEDSSVYYCGRVPLYTSHGMDYWGQGTSVTVSS VL: DIVLTQSPAFLAVSLGQRATISCRASESVDSYDINSMHWYQQKPGQPPKLLIYRASHLQSGIPARFSGSGSRTDFTLTINFVEADDVATYYCQQSNEDPLTFGAGTKLELK | 2.11 | – | – | – | – | –

Source: patent US20260055186A1 (REPERTOIRE IMMUNE MEDICINES, published 2026)
